Patent US20260241049A1, “Radiopharmaceutical Compositions Targeting Glypican-3 and Uses Thereof” (RayzeBio, Inc., priority 2023, published 2026)
Starred links: 1 amine or outer side, 2 acyl side, 3 side chain; linkers in the order of their positions; H or OH if unused. Positions of bridges follow the written chain, without caps; N, C: chain ends. Non-standard residues stand in square brackets, D forms with d. Primed or numbered codes have the meaning given here. MeDapCOpipzaa = 3-(4-(carboxymethyl)piperazine-1-carboxamido)-2-(methylamino)propanoic acid, CN([C@@H](CNC(=O)N1CCN(CC(=O)[*:3])CC1)C(=O)[*:2])[*:1]; MeKCOpipzaa = N-alpha-methyl-N6-[4-(carboxymethyl)piperazine-1-carbonyl]-L-lysine, CN([C@@H](CCCCNC(=O)N1CCN(CC(=O)[*:3])CC1)C(=O)[*:2])[*:1]; W5N = 2-amino-3-(1H-pyrrolo[3,2-c]pyridin-3-yl)propanoic acid (5-aza-tryptophan), O=C([C@H](Cc1c[nH]c2ccncc12)N[*:1])[*:2]; MeHseMe(3) = N-methyl-O-methyl-homoserine, 4-methoxy-2-(methylamino)butanoic acid, COCC[C@@H](C(=O)[*:2])N(C)[*:1]; F4aao″ = 2-amino-3-(4-(carboxymethoxy)phenyl)propanoic acid, O=C([C@H](Cc1ccc(OCC(=O)[*:3])cc1)N[*:1])[*:2]; F4aao = 4-(carboxymethoxy)-L-phenylalanine, O=C([C@H](Cc1ccc(OCC(=O)[*:3])cc1)N[*:1])[*:2]; MeHseMe = N-methyl-O-methyl-L-homoserine, COCC[C@@H](C(=O)[*:2])N(C)[*:1]; Thr(Me)″ = TMe = O-methyl-L-threonine, CO[C@H](C)[C@H](N[*:1])C(=O)[*:2]; Phe(4-(1-Me-pyrazol-4-yl)) = Cn1cc(-c2ccc(C[C@H](N)C(=O)O)cc2)cn1; TMe = O-methyl-L-threonine, CO[C@H](C)[C@H](N[*:1])C(=O)[*:2]; NMeAla(isoquinolin-7-yl) = CN[C@@H](Cc1ccc2ccncc2c1)C(=O)O; Phe(4-CH2COOH) = N[C@@H](Cc1ccc(CC(=O)O)cc1)C(=O)O; 3Pal(6-Ph) = N[C@@H](Cc1ccc(-c2ccccc2)nc1)C(=O)O; Phe(4-COOH) = N[C@@H](Cc1ccc(C(=O)O)cc1)C(=O)O; NMe2Nal = CN[C@@H](Cc1ccc2ccccc2c1)C(=O)O; AEF = NCCOc1ccc(C[C@H](N)C(=O)O)cc1; NMe3Pal = CN[C@@H](Cc1cccnc1)C(=O)O; NMeY = CN[C@@H](Cc1ccc(O)cc1)C(=O)O; NMeI = CC[C@H](C)[C@H](NC)C(=O)O; aIle = CC[C@@H](C)[C@H](N)C(=O)O; NMeQ = CN[C@@H](CCC(N)=O)C(=O)O; NMeK = CN[C@@H](CCCCN)C(=O)O; NMeC = CN[C@@H](CS)C(=O)O; NMeA = CN[C@@H](C)C(=O)O; MeK = methyl-L-lysine

B1: Macrocyclic peptide of Example 2-43 (SEQ ID No. 32) (peptide)
peptide: {CH2CO}-[NMeK][NMeI]D[NMeQ][Phe(4-COOH)][TMe]I[F4aao″][NMeAla(isoquinolin-7-yl)]G[3Pal(6-Ph)][NMeC]E-NH2
modifications: thioether N-12
SMILES: CC[C@H](C)[C@@H]1NC(=O)[C@H]([C@@H](C)OC)NC(=O)[C@H](Cc2ccc(C(=O)O)cc2)NC(=O)[C@H](CCC(N)=O)N(C)C(=O)[C@H](CC(=O)O)NC(=O)[C@H]([C@@H](C)CC)N(C)C(=O)[C@H](CCCCN)N(C)C(=O)CSC[C@@H](C(=O)N[C@@H](CCC(=O)O)C(N)=O)N(C)C(=O)[C@H](Cc2ccc(-c3ccccc3)nc2)NC(=O)CNC(=O)[C@H](Cc2ccc3ccncc3c2)N(C)C(=O)[C@H](Cc2ccc(OCC(=O)O)cc2)NC1=O
B2: Macrocyclic peptide of Example 2-42 (SEQ ID No. 31) (peptide)
peptide: {CH2CO}-[NMeK][NMeI]D[NMeQ][Phe(4-COOH)][TMe]I[F4aao″][NMeAla(isoquinolin-7-yl)]G[3Pal(6-Ph)][NMeC][dE]-NH2
modifications: thioether N-12
SMILES: CC[C@H](C)[C@@H]1NC(=O)[C@H]([C@@H](C)OC)NC(=O)[C@H](Cc2ccc(C(=O)O)cc2)NC(=O)[C@H](CCC(N)=O)N(C)C(=O)[C@H](CC(=O)O)NC(=O)[C@H]([C@@H](C)CC)N(C)C(=O)[C@H](CCCCN)N(C)C(=O)CSC[C@@H](C(=O)N[C@H](CCC(=O)O)C(N)=O)N(C)C(=O)[C@H](Cc2ccc(-c3ccccc3)nc2)NC(=O)CNC(=O)[C@H](Cc2ccc3ccncc3c2)N(C)C(=O)[C@H](Cc2ccc(OCC(=O)O)cc2)NC1=O
B3: Macrocyclic peptide of Example 2-38 (SEQ ID No. 55) (peptide)
peptide: KSDXFTIXFGXC
modifications: not fully specified; MeKCOpipzaa-MeHseMe-D-MeDapCOpipzaa-F4COO-TMe-I-Yae-MeNal27N-G-3Py6Ph-MeC-NH2; thioether ring from N-terminal acetyl to MeC12
B4: Macrocyclic peptide of Example 2-39 (SEQ ID No. 67) (peptide)
peptide: ASDYIIYFGXC
modifications: not fully specified; MeA-S-(position 3 absent)-D-Y-I-I-Y-MeNal2-G-3Py6Ph-MeC-NH2; thioether ring from N-terminal acetyl to MeC
notes: 11 residues
B5: Macrocyclic peptide of Example 2-41 (SEQ ID No. 68) (peptide)
peptide: {CH2CO}-[NMeA]S[W5N]YIIY[NMe2Nal]G[3Pal(6-Ph)][NMeC]-NH2
modifications: thioether N-11
SMILES: CC[C@H](C)[C@@H]1NC(=O)[C@H](Cc2ccc(O)cc2)NC(=O)[C@H](Cc2c[nH]c3ccncc23)NC(=O)[C@H](CO)NC(=O)[C@H](C)N(C)C(=O)CSC[C@@H](C(N)=O)N(C)C(=O)[C@H](Cc2ccc(-c3ccccc3)nc2)NC(=O)CNC(=O)[C@H](Cc2ccc3ccccc3c2)N(C)C(=O)[C@H](Cc2ccc(O)cc2)NC(=O)[C@H]([C@@H](C)CC)NC1=O
notes: 11 residues
B6: Macrocyclic peptide of Example 2-44 (SEQ ID No. 69) (peptide)
peptide: {CH2CO}-[NMeA][NMe3Pal]DY[aIle]IY[NMe2Nal]G[3Pal(6-Ph)][NMeC]-NH2
modifications: thioether N-11
SMILES: CC[C@@H](C)[C@@H]1NC(=O)[C@H](Cc2ccc(O)cc2)NC(=O)[C@H](CC(=O)O)NC(=O)[C@H](Cc2cccnc2)N(C)C(=O)[C@H](C)N(C)C(=O)CSC[C@@H](C(N)=O)N(C)C(=O)[C@H](Cc2ccc(-c3ccccc3)nc2)NC(=O)CNC(=O)[C@H](Cc2ccc3ccccc3c2)N(C)C(=O)[C@H](Cc2ccc(O)cc2)NC(=O)[C@H]([C@@H](C)CC)NC1=O
notes: 11 residues
B7: Macrocyclic peptide of Example 2-40 (SEQ ID No. 66) (peptide)
peptide: {CH2CO}-[NMeA][NMeY]DY[TMe]IY[NMe2Nal]G[3Pal(6-Ph)][NMeC]-NH2
modifications: thioether N-11
SMILES: CC[C@H](C)[C@@H]1NC(=O)[C@H]([C@@H](C)OC)NC(=O)[C@H](Cc2ccc(O)cc2)NC(=O)[C@H](CC(=O)O)NC(=O)[C@H](Cc2ccc(O)cc2)N(C)C(=O)[C@H](C)N(C)C(=O)CSC[C@@H](C(N)=O)N(C)C(=O)[C@H](Cc2ccc(-c3ccccc3)nc2)NC(=O)CNC(=O)[C@H](Cc2ccc3ccccc3c2)N(C)C(=O)[C@H](Cc2ccc(O)cc2)NC1=O
notes: 11 residues
B8: Macrocyclic peptide of Example 2-32 (SEQ ID No. 49) (peptide)
peptide: KKDKFTIFFGXC
modifications: not fully specified; MeK-MeKCOpipzaa-D-MeKCOpipzaa-F4COO-TMe-I-F4aaopipzaa-MeNal27N-G-3Py6Ph-MeC-NH2; thioether ring from N-terminal acetyl to MeC12

Biological target: T1, Human Glypican3-Fc (ACRO Biosystems, GP3-H5258) (human, UniProt P51654 25-559)
T1 construct: Bought fusion protein, captured in Methods B-2, B-3 and B-4; Catalogue number is printed only in Method B-2; not shown: Fc part of the bought fusion
Assay: SPR (Biacore T200), Method B-3: Glypican3-Fc captured on Protein A chip, peptide as analyte
Protocol: A Protein A sensor chip (Cytiva) was inserted into a Biacore T200 (Cytiva), priming was performed three times with a running buffer: HBS-P+, pH 7.4 (Cytiva), and equilibration was carried out at a flow rate of 30 μL/min. Glypican3-Fc was allowed to react for 60 seconds at a flow rate of 10 μL/min. After capturing human Glypican3-Fe, a peptide solution prepared to 10 mM in DMSO solution was diluted with a running buffer to a final concentration of 10 μM. […] Using the above samples, peptide kinetics for Glypican3 was obtained by SPR measurement. Kinetics evaluation of Glypican3 was performed by SPR measurements at a flow rate of 10 LL/min, setting the association time to 120 seconds and the disassociation time to 600 seconds.
The obtained data by Method B-1, Method B-2, Method B-3 and Method B-4 were analyzed by follow. Single Cycle Kinetics was used as the kinetics evaluation model, and curve fitting was performed using Biacore T200 Evaluation Software Version 3.0 (Cytiva).

Row | Kd [nM] | Binder
1 | 9.3 | B1
2 | 3.2 | B2
3 | 1 | {CH2CO}-[NMeK][MeKCOpipzaa]D[MeDapCOpipzaa][Phe(4-COOH)][Thr(Me)″]I[F4aao][NMeAla(isoquinolin-7-yl)]G[3Pal(6-Ph)][NMeC]-NH2 (thioether N-12) [Macrocyclic peptide of Example 2-29 (SEQ ID No. 46)]
4 | 1.8 | B3
5 | 25.3 | B4
6 | 58.5 | B5
7 | 49.1 | B6
8 | 21.5 | B7
9 | 0.3 | {CH2CO}-[NMeA][MeHseMe]D[NMeQ][Phe(4-COOH)][Thr(Me)″]I[AEF][NMe2Nal]G[3Pal(6-Ph)][NMeC]-NH2 (thioether N-12) [Macrocyclic peptide of Example 2-28 (SEQ ID No. 44)]
10 | 1.8 | B8
11 | 0.2 | {CH2CO}-[MeK][MeHseMe(3)]D[NMeQ][Phe(4-COOH)]II[Phe(4-CH2COOH)][NMe2Nal]G[3Pal(6-Ph)][NMeC]-NH2 (thioether N-12) [Macrocyclic peptide of Example 2-47 (SEQ ID No. 21)]
12 | 0.2 | {CH2CO}-[MeK][NMeI]Q[NMeQ][Phe(4-COOH)]II[Phe(4-COOH)][NMe2Nal]G[Phe(4-(1-Me-pyrazol-4-yl))][NMeC]-NH2 (thioether N-12) [Macrocyclic peptide of Example 2-46 (SEQ ID No. 6)]
